A short description of the series: soluble on expression in E. coli; label from the status in PepcDB or PDB records.
As to “TIKNFTFFSPNSTEFPVGSNNDGKLYMMLTGMDYRTIRRKDWSSPLNTALNVQYTNTSIIAGGRYFELLNETVALKGDSVNYIHANIDLTQTANPVSLSAETANNSNGVDINNGSGVLKVCFDIVTTSGTGVTSTKPIVQTSTLDSISVNDMTVSGSIDVPVQTLTVEAGNGLQLQLTKKNNDLVIVRFFGSVSNIQKGWNMSGTWVDRPFRPAAVQSLVGHFAGRDTSFHIDINPNGSITWWGANIDKTPIATRGNGSYFIKSAW”, the “soluble on expression in E. coli” value was “soluble”.
With “TKAVHTKHAPAAIGPYSQGIIVNNMFYSSGQIPLTPSGEMVNGDIKEQTHQVFSNLKAVLEEAGASFETVVKATVFIADMEQFAEVNEVYGQYFDTHKPARSCVEVARLPKDALVEIEVIALVK” the entry was “soluble”; with “TKDFGYSFNANYATNTNEVKALGPGNAPIISTGSVDHAYYITKVGEPIGCYYLLVQDGIFSNEEELKKYPHFSNTQPGDFRFVDVDGDGVMDLDKDRTIVGNYMPDFTYGFGGKVWYKGIDLDFNFQGVYGNEILNLNRRYIDNLEGNTNGTTIALNRWKSADNPGNGQVNRANRKSKGYNGRTSTWHLEDGSYLRLQNVTLGYTLPQNLTRRFFVEKLRVYVSGQNLWTSTNYGGYNPEVNARPSNSLSPGEDYGTYPLAKTFLFGLNITL”, “not soluble”; with “TKDFIWNLSFNGTHYSNKILNLPEDKRENGIIHGTASLFRLMEGGSIYDLYTYEYAGVNPETGAAQWYMDEKDANGKVTGRTVTEDYTQASKYELGSTLPDFQGGFSTDFAYKGIDLSIATNFQIGGKIYDSMYSSFMHAGSNIGSNWHKDILNAWTPENKNTNVPIMDGAQNSNSQSSRFLINASFFNIRNISLGYTFPKEWMKAISASSARIYVSADNVALFSKRKGMDPRQYAYGYSAANYSAIRTLSFGINLNF”, “not soluble”.
For “TKIAMANFKSAMPIFKSHAYLKELEKTLKPQHFDRVFVFPDFFGLLPNSFLHFTLGVQNAYPRDCGAFTGEITSKHLEELKIHTLLIGHSERRTLLKESPSFLKEKFDFFKSKNFKIVYCIGEELTTREKGFKAVKEFLSEQLENIDLNYPNLVVAYEPIWAIGTKKSASLEDIYLTHGFLKQILNQKTPLLYGGSVNTQNAKEILGIDSVDGLLIGSASWELENFKTIISFL” the value was “soluble”.
With “TLAGRIVLVKIEPLSFSEFCKLKGHEVPYEKVAYARDILSPMLMEYIEKGGFPELVWENDPYKIRSYVRSIVIDRIVTRDIPQEFGIR” the entry was “not soluble”; with “TLREGWVVHYSNKDTLRKRHYWRLDCKCITLFQNNTTNRYYKEIPLSEILTVESAQNFSLVPPGTNPHCFEIVTANATYFVGEMPGGTPGGPSGQGAEAARGWETAIRQALM”, “soluble”; with “TMAGRSMQAARCPTDELSLSNCAVVSEKDYQSGQHVIVRTSPNHKYIFTLRTHPSVVPGSVAFSLPQRKWAGLSIGQEIEVALYSFDKAKQCIGTMTIEIDFLQKKNIDSNPYDTDKMAAEFIQQFNNQAFSVGQQLVFSFNDKLFGLLVKDIEAMDPSILKGEPASGKRQKIEVGLVVGNSQVAFEKAENSSLNLIGKAKTKE”, “soluble”.
On to “TNHHQRALSYLQYGLDQGEGFIVITGPIGTGKTTIARNLLANIADENIVAAQLVTTKLTPNELLDLVAAEFKITVTGNSKADVLQSIEKFLINLNKQGKRALLLVDEAQNLPVETVEELRMLSNFQLDNKPLIQSFLLGQEELKAIISAPDMEQFRQRIIASAHLKP”, for which the “soluble on expression in E. coli” value is given as “not soluble”.
With “TPGFSLGFIVNMRLHDHFDLRLLPTVGFYSRSIQYDFIKTSEIQTIESTFVEFPLLLKYKSQRRNNSRLYVTGGFKASIEAGAKKKQRKSTDLRTNGFDLCLDMGVGMDIYCPLFKFSPEIRYSHGLLNLLNNDPNVYSSSLSRLSSNTISLFFNFE” the entry was “not soluble”; with “TQDMELNVNVNVTFQQNKLLSLSGMYGGENISAPEYKSLASLDGAGFHGGYNHIVYQMVGQPLGVFYLPHCKGLIADGNGGYTYDIADLNGGGVSLEDGEDRYVAGQAVPKTLLGSNISFRYKRFDLSVQVNGAFGHKIYNGTSLTYMNMNIFPDYNVMKKAPGRNIKDQTATDYWLEKGDYINFDYVTVGWNVPVAKWKKYVQSFRLAFTVNNLATITGYSGLSPMINSSTVNSTLGVDDKRAYPLARTYTLGLSINF”, “not soluble”; with “TQQPIVTGTSVISMKYDNGVIIAADNLGSYGSLLRFNGVERLIPVGDNTVVGISGDISDMQHIERLLKDLVTENAYDNPLADAEEALEPSYIFEYLATVMYQRRSKMNPLWNAIIVAGVQSNGDQFLRYVNLLGVTYSSPTLATGFGAHMANPLLRKVVDRESDIPKTTVQVAEEAIVNAMRVLYYRDARSSRNFSLAIIDKNTGLTFKKNLQVENMKWDFAKDIKGYGTQKI”, “soluble”.
With “TRAFQEGSYSSNIKNAAKFYTGLIQLQNPEFGDSSSIDDALPQTDTFISASRANSNIDVILPRVESFALAAKGERSKGVMVLGVDPESENAYSHISDKLVQGEFIASGQNAVLVGGGLAQYLRLKIGDELVLYGAGYRGQTAAGLYRVAGILHFPLQQLDSQLVYMPLDTAQTLYSLDKQVTAWVLNTSNLRVLPSVIEQLKRDYGNSVAVKGWQELSPELSQQIALDKAG” the entry was “not soluble”.
For “TSHHHHHMKKIEHKMVAVNGLNMHLAELGEGPTILFIHGFPELWYSWRHQMVYLAERGYRAVAPDLRGYGDTTGAPLNDPSKFSILHLVGDVVALLEAIAPNEEKVFVVAHDWGALIAWHLCLFRPDKVKALVNLSVHFSKRNPKMNVVEGLKAIFGEDHYISRFQVPGEIEAEFAPIGAKSVLKKILTYRDPAPFYFPKGKGLEAIPDAPVALSSWLSEEELDYYANKFEQTGFTGAVNYYRALPINWELTAPWTGAQVKVPTKFIVGEFDLVYHIPGAKEYIHNGGFKKDVPLLEEVVVLEGAAHFVSQERPHEISKHIYDFIQKF” the value was “soluble”.
Consider “TTEENSKSEALLDIPMLEQYLELVGPKLITDGLAVFEKMMPGYVSVLESNLTAQDKKGIVEEGHKIKGAAGSVGLRHLQQLGQQIQSPDLPAWEDNVGEWIEEMKEEWRHDVEVLKAWVAKATKK”, for which the “soluble on expression in E. coli” value is “soluble”.
For “TTPIVHLKGDANTLKCLRYRFKKHCTLYTAVSSTWHWTGHNVKHKSAIVTLTYDSEWQRDQFLSQVKIPKTITVSTGFMSIGGGTGGGSGGGS” the value was “soluble”; for “VAVGDVDAPVGLVVFSDYQCPFCAKWSDETLPQMMKHVEDGNLRIEWREVNIFGEPSERGARAAYAAGLQDAYLEYHNALFANGEKPSEDLLSEEGLIKLAGDLGLDESKFTADFQSPETAVAIAQHQQLGIDLGAYSTPAFLLGGQPIMGAQPASVFEAAFEQALAAKE”, “not soluble”.
For the sequence “VDLEKFKFHARIDDDFEDSYIQLLLDAAINYVSKITGVPNDENAPPEYDLAIMILALHWYTNREVLSDRGTNQVPYGLGMLIANLRTN”, the “soluble on expression in E. coli” value is “not soluble”.
With “VDLGSKSSNSTCRLNVTELASIHPGETWTLHGMCISICYYENVTEDEIIGVAFTWQHNESVVDLWLYQNDTVIRNFSDITTNILQDGLKMRTVPVTKLYTSRMVTNLTVGRYDCLRCENGTTKIIERLYVRLGSLYPRPPGSGLAKHPSVSADEELSA”, the “soluble on expression in E. coli” value was “soluble”.
With “VDYKTVRCHFGDVELTKWITITDGFTVFSGADYDPELKEIGGKDGSIFIGTKTKHKVIKVPFWVKYNTIEDYDALQLALSSKKPKMLMFSHIPGRYYLAVQVGDLNFKEIKMNGFGEITFIVADAYAHSTSYRRIKDYTQDGNKMTFKIKNNGTAPAFPIFRIKHLGENGYIGITNETGAFAVGSPEEEDGTIVHRNETLFDYSKAIAQALEGAPNVAKLNYMPPTFDSELKRMRLDNILGSGKGGEYVAIGARGTTPGYGEHVGTRTFIINPDSNGEYTLNEHLWWKQIFIATAQDQKGFLKLCVTGENDEFLYGIETYKRKNGFETEYNFFALDDDGVGWRFYKQFEFQADRNYHNPFSMNRSRAVEIFREEDKFRIYFNGAHHHVTVPSLKGKKSRKIHLAMGTCSDSSKYINYNLFEKVNFEKMGVSHYNNIVNKYQPGDEVIINFENDTVSTKDIDSIQDVVLGSKMISIPPGESELVVHLSSWVA” the entry was “not soluble”; with “VEPSEENSKDCVVCQNGTVNWVLLPCRHTCLCDGCVKYFQQCPMCRQFVQESFAL”, “soluble”; with “VFCAGHGVYWVAYDAGNLIKNGENTVEILTSTGEPGKKMDGRIYGTVLAAACENPKAPMVSYQLLTGNINLHGEGWSENIKEVNDRAEVNFSAGQALNNIDSANLSVVYLTGSKGLPDYIEFNGEIPGVPPQYLVEKCGENVRDIANEVSFDSSGDKGAASSYFDMEHIDVLNYLKADNSAVFVRGFDINGDGKIDDQEGEDYLHPVLAALVLTSKNTESVFPDLYPEIRVSEEELIDGKPVEISLTINNPGGICEENCTAVFLVDGNEISRVPIQMGAAGIHRSGILWSGIKGEHRLELFLD”, “not soluble”.
With “VGKEKMPVELYHAGEEITQLVREFATDKMKKAVQTFEKLERMENMDRVKEETLAHFEETLEDFEDFVGDIEEVLQDIIKEEVRKLIVHENVRPDNRKLEEIRP” the entry was “not soluble”; with “VGKLQKREYSHEVNDEDLRKKVHDECYARAYEVATSGTGKHERGEAFEKIVEEFKAQYTEEELAEKAEMIARYYHDVEKEAMRRAILDEGKRLDGRKTTEIRP”, “not soluble”.
With “VGKQLAALAALVGACMLAAGCTNVVDGTAVAADKSGPLHQDPIPVSALEGLLLDLSQINAALGATSMKVWFNAKAMWDWSKSVADKNCLAIDGPAQEKVYAGTGWTAMRGQRLDDSIDDSKKRDHYAIQAVVGFPTAHDAEEFYSSSVQSWSSCSNRRFVEVTPGQDDAAWTVADVVNDNGMLSSSQVQEGGDGWTCQRALTARNNVTIDIVTCAYSQPDLVAIGIANQIAAKVAKQ” the entry was “not soluble”; with “VHFAPTITFLESPTSDHHWCIPFTVKGNPKPALQWFYNGAILNESKYICTKIHVTNHTEYHGCLQLDNPTHMNNGDYTLIAKNEYGKDEKQISAHFMGWPGID”, “soluble”; with “VKSKAKKTVDKHSDEYKIRRERNNIAVRKSRDKAKMRNLETQHKVLELTAENERLQKKVEQLSRELSTLRNLFKQLPEPLLASSGHC”, “soluble”.
On to “VKSLFLLVLGNTEISTIPGISVAGATPELTKITPVADAEYLFYEKPLTIDTIPVTPEGHPTPAIITKAARELSNFPILVVRGGTYLAPLIPHVHISNVVGRDFRREPALPEVEVIIERAKLLGKELEKIANEIVIGESTPGGTTTAQAILWALGYEAKTSSASPENPQELKEKVIKEGFKRVGIEKGGLKDKPLEALKEFGDPMIATVLGLSLGFGGDVVLAGGTQMLAVSALLKSLGEDLSRFMIATTRWVVEDPSATFIETAREIGIISYVAELDFSKSKFKGLRDYERGYVKEGVGAGGATWLAV”, for which the “soluble on expression in E. coli” value is on record as “not soluble”.
With “VLDSFEILKALKSLDLLKNAPAWWWPNALKFEALLGAVLTQNTKFEAVLKSLENLKNAFILENDDEINLKKIAYIEFSKLAECVRPSGFYNQKAKRLIDLSGNILKDFQSFENFKQEVTREWLLDQKGIGKESADAILCYACAKEVMVVDKYSYLFLKKLGIEIEDYDELQHFFEKGVQENLNSALALYENTISLAQLYARFHGKIVEFSKQKLELKL” the entry was “soluble”; with “VMHSSLYTSVDDKLHGLSENPQAVIQLAINRATEEIKDLENARADASKVEIKPNVSSNTEVILFDKDFTQLLSGNRFLGLDKIKLEKKELGHIYQIQVFNSYGQEEIYRVILMETNISSVSTNIKYAAVLINTSQLEQASQKHEQ”, “not soluble”.

Source of the values: the DeepSol protein solubility set.
